Molecular target: the molecule itself
Assay: crystal structure

Protein | stoichiometry N
fluorophosphonate-binding hydrolase F (FphF), apo form (enzyme, Staphylococcus aureus, UniProt Q2FUY3 2-253, looked up) AYISLNYHSPTIGMHQNLTVILPEDQSFFNSDTTVKPLKTLMLLHGLSSDETTYMRYTSIERYANEHKLAVIMPNVDHSAYANMAYGHSYYDYILEVYDYVHQIFPLSKKRDDNFIAGHSMGGYGTIKFALTQGDKFAKAVPLSAVFEAQNLMDLEWNDFSKEAIIGNLSSVKGTEHDPYYLLDKAVAEDKQIPKLLIMCGKQDFLYQDNLDFIDYLSRINVPYQFEDGPGDHDYAYWDQAIKRAITWMVND | 4
FphF with the 2-phenylpiperidine-1-carbonyl moiety of KT129 or KT130 covalently attached to Ser121 (enzyme, Staphylococcus aureus, UniProt Q2FUY3 2-253, looked up, 2-phenylpiperidine-1-carbonyl moiety covalently attached to the terminal side chain oxygen atom of Ser121) AYISLNYHSPTIGMHQNLTVILPEDQSFFNSDTTVKPLKTLMLLHGLSSDETTYMRYTSIERYANEHKLAVIMPNVDHSAYANMAYGHSYYDYILEVYDYVHQIFPLSKKRDDNFIAGHSMGGYGTIKFALTQGDKFAKAVPLSAVFEAQNLMDLEWNDFSKEAIIGNLSSVKGTEHDPYYLLDKAVAEDKQIPKLLIMCGKQDFLYQDNLDFIDYLSRINVPYQFEDGPGDHDYAYWDQAIKRAITWMVND | 4
FphF with the heptyl acyl moiety of 4-MU heptanoate covalently linked to Ser121 (enzyme, Staphylococcus aureus, UniProt Q2FUY3 2-253, looked up, heptyl acyl moiety covalently linked to Ser121) AYISLNYHSPTIGMHQNLTVILPEDQSFFNSDTTVKPLKTLMLLHGLSSDETTYMRYTSIERYANEHKLAVIMPNVDHSAYANMAYGHSYYDYILEVYDYVHQIFPLSKKRDDNFIAGHSMGGYGTIKFALTQGDKFAKAVPLSAVFEAQNLMDLEWNDFSKEAIIGNLSSVKGTEHDPYYLLDKAVAEDKQIPKLLIMCGKQDFLYQDNLDFIDYLSRINVPYQFEDGPGDHDYAYWDQAIKRAITWMVND | 4
